The values that follow come from patent publication US20210196823A1, “Methods of Treating Metabolic Disease” (Pfizer Inc., priority 2018, published 2021).

In one experiment the test system is Huh7 cells. The experiment can be described thus: Activity of erythroferrone domains and subunits in Huh7 cells (qRT-PCR). The experiment is classed as cell-based. Conditions: FIG. 8A. How it is done: FIG. 6. The C1q domain is not required for erythroferrone activity: (FIG. 6A) Huh7 cells were treated for 24 h with full-length or C1q domain of human erythroferrone (10 μg/ml). (FIG. 6B) Huh7 cells were treated for 24 h with adipoferrone (construct containing N-terminal domain of adiponectin and C1q domain of erythroferrone) or C1q trimer (Tri-C1q) derived from mouse erythroferrone at 10 μg/ml. Gene expression measured by qRT-PCR. Data represents mean+standard deviation (n=3). ***p<0.001; ****p<0.0001.
FIG. 8. Erythroferrone subunits designed based on predicted patterns of furin cleavage differ in their ability to suppress hepcidin: (FIG. 8A) mono-Fc-huERFE A4 construct suppresses hepcidin expression, (FIG. 8B) Huh7 cells were treated for 24 h with human erythroferrone subunits that were designed to represent all the potential Erfe subunits that could be formed assuming activity at both in silico-predicted furin cleavage sites. (see FIG. 7A). Gene expression measured by qRT-PCR. Data represents mean+standard deviation (n=3). ***p<0.001; ****p<0.0001.
Erythroferrone is a member of the C1q/TNF-related protein (CTRP) family and comprises a structure composed of a signal peptide, an N-terminal, a collagen-like domain, and a globular C terminal domain homologous to complement protein 1q (C1q). […]
On the technique in general: Real-time PCR tracks product formation cycle by cycle.

For another experiment, the target named is furin (Homo sapiens, UniProt P09958). Put plainly: Furin cleavage of wild-type and RARR-AAAA (A4) Erfe mutant, Coomassie staining. The format is biochemical. Conditions: RARR site mutated to AAAA vs wild-type. An excerpt: FIG. 7. Mutation of the RARR furin cleavage site at the N-terminal of Erfe prevents cleavage by furin. (FIG. 7A) Diagrammatic structure of full length human erythroferrone and potential subunits generated after furin cleavage. (FIG. 7B) Coomassie blue staining of wild-type and an RARR-AAAA(A4) Erfe mutant, in the presence or absence of furin protease.
Sequence analysis of human erythroferrone using the ProP software predicted two furin cleavage sites: RARR at position 42 and RLRR at position 212 (FIG. 7A). The RLRR site is conserved in the mouse ortholog (position 198).

Experiment [1] concerns ERFE suppression of hepcidin production. The experiment can be described thus: NanoLuc assay: anti-ERFE antibody with monoFC-huErfe and BMP6. The experiment is classed as cell-based. The settings on record: tripling dilutions from 500 nM, BMP6 625 pM, monoFC-huErfe 20 nM. How it is done: The was measured in-vitro using as follows: A hepcidin transcriptional fusion reporter assay (nano-luc or nano-luciferase assay) was developed to assess the effect of BMPs on hepcidin production in-vitro. A nanoluciferase reporter was inserted at the end of the coding sequence of the endogenous HAMP gene, in HepG2 hepatoma cells, creating a HAMP-nanoluciferase fusion. CRISPR-Cas9 was used to edit the cells with this knock-in reporter construct. A bovine Growth Hormone poly A was included after the nanoLuc to ensure proper mRNA processing. A Puromycin-TK expression cassette was also included 3′ of the nanoluc reporter to enrich for properly targeted clones. Clones that were homozygous for the HAMP-NanoLuc fusion were selected and tested for their response to BMPs and LDN(4-[6-[4-(1-Piperazinyl)phenyl]pyrazolo[1,5-a]pyrimidin-3-yl]quinoline dihydrochloride), a potent ALK2/3 BMP inhibitor, a schematic of the nano-luc construct is shown in FIG. 1B. The effect of representative BMPs (BMP, 2, 6, 9) on the Hamp-nanoLuc signal was assessed. Approximately 20,000 cells (cells split with trypsin/EDTA) were suspended in 200 uL of complete media (DMEM+10% serum+Na pyruvate) and were distributed into each well of 96-well plates and incubated for 24 hours at 37 C. […] Plates were read on Envision with Lum700 program following the manufacturer's instructions. […]

In the next experiment the target is T1, murine ERFE (Mus musculus, UniProt Q6PGN1).
T1 sequence (Q6PGN1 25-340): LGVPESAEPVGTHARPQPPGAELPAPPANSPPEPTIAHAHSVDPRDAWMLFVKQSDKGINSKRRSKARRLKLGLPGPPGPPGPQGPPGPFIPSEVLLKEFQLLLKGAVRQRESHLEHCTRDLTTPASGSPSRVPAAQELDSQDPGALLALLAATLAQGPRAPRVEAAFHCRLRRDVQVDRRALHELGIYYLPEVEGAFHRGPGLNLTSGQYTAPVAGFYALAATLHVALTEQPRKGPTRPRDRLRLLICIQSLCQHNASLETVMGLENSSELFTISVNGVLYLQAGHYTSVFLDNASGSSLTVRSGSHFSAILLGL
Put plainly: HAMP and ID1 qRT-PCR in HUH7 cells with BMP 5, 6 or 7, murine ERFE and anti-ERFE antibody 15.1. The settings on record: BMP 5, 6 or 7 2 nM, murine ERFE 1 μg/ml, antibody 10 μg/ml, 6 h. The format is cell-based. Here is the method:
HUH7 cells treated with BMP 5, 6 or 7 (2 nM), murine ERFE (1 μg/ml) and anti-ERFE antibody 15.1 (10 μg/ml), alone or in combination, for 6 h. HAMP and ID1 gene expression was measured by qRT-PCR and expressed as fold-change relative to untreated cells, FIGS. 11A and 11B.

Chain of furin (P09958 108-794, species assumed): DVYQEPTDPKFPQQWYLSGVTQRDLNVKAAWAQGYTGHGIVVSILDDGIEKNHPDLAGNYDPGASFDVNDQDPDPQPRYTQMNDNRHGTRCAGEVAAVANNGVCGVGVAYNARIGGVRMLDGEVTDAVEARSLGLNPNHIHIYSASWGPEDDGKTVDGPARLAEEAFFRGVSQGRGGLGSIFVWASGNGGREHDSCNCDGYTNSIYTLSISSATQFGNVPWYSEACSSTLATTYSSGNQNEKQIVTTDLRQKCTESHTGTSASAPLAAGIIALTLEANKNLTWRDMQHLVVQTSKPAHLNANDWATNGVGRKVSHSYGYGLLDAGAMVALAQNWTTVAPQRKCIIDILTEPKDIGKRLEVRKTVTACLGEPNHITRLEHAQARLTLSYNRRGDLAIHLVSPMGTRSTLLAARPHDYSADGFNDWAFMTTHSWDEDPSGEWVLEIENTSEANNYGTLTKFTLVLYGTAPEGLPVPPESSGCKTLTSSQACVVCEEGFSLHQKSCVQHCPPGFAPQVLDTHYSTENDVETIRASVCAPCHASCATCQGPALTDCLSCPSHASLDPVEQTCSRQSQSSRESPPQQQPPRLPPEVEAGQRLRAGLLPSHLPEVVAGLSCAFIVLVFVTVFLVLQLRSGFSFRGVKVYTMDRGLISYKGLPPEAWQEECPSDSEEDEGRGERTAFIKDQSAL

B1: monoFC-huErfe A4: human erythroferrone mono-Fc construct with RARR furin cleavage site mutated to AAAA (protein)
chain: AAGLGSPEPGAPSRSAAAAEPPPGNELPRGPGESRAGPAARPPEPTAERAHSVDPRDAWMLFVRQSDKGVNGKKRSRGKAKKLKFGLPGPPGPPGPQGPPGPIIPPEALLKEFQLLLKGAVRQRERAEPEPCTCGPAGPVAASLAPVSATAGEDDDDVVGDVLALLAAPLAPGPRAPRVEAAFLCRLRRDALVERRALHELGVYYLPDAEGAFRRGPGLNLTSGQYRAPVAGFYALAATLHVALGEPPRRGPPRPRDHLRLLICIQSRCQRNASLEAIMGLESSSELFTISVNGVLYLQMGQWTSVFLDNASGCSLTVRSGSHFSAVLLGV
For the molecule B1, the hepcidin expression result in the experiment on Huh7 cells was “effectively suppress”. Moreover, in the experiment with furin, the “clipping of human erythroferrone after treatment with furin” value is “reduced the clipping”.

B2: Ab 15.1: neutralising anti-ERFE antibody; heavy and light chain SEQ ID NO: 26 and 27 (antibody)
heavy: EVQLQQSGPELVKPGASVKMSCKASGYTFTDYSMHWVKQSHGKSLEWIGYINPNSGGTSYNQKFKGKATLTVNKSSSTAYMELRSLTSEDSAVYYCVPYGYDDYWGQGTTLTVSSAKTTAPSVYPLAPVCGDTTGSSVTLGCLVKGYFPEPVTLTWNSGSLSSGVHTFPAVLQSDLYTLSSSVTVTSSTWPSQSITCNVAHPASSTKVDKKIEPRGPTIKPCPPCKCPAPNLEGGPSVFIFPPKIKDVLMISLSPIVTCVVVDVSEDDPDVQISWFVNNVEVHTAQTQTHREDYNSTLRVVSALPIQHQDWMSGKAFACAVNNKDLPAPIERTISKPKGSVRAPQVYVLPPPEEEMTKKQVTLTCMVTDFMPEDIYVEWTNNGKTELNYKNTEPVLDSDGSYFMYSKLRVEKKNWVERNSYSCSVVHEGLHNHHTTKSFSRTPG
light: DVLMTQTPLSLPVSLGDQVSISCRSSQSIVHSNGNTYLEWYLQKPGQSPKLLIYKVSNRFSGVPDRFSGSGSGTDFTLRITRVAAEDLGVYYCFQGSHVPLTFGAGTKLELKRTDAAPTVSIFPPSSEQLTSGGASVVCFLNNFYPKDINVKWKIDGSERQNGVLNSWTDQDSKDSTYSMSSTLTLTKDEYERHNSYTCEATHKTSTSPIVKSFNRNEC
B2: in experiment [1], the “inhibition of ERFE suppression of hepcidin production” value was “inhibit ERFE suppression of hepcidin production in a dose-dependent manner”. Besides, the “block of ERFE activity on BMPs (HAMP and ID1 expression)” value with murine ERFE was “prevent BMP inhibition”.
